In patent US20220380459A1 (DRAGONFLY THERAPEUTICS, published 2022):
Read-outs that look alike come from different tables or passages of the source. Blank lines part the entries; values can stand above or below the binder they belong to.

Key:
[1] = molecular target: T1, human CD33 expressed on cells (human, UniProt P20138 18-364); experiment: flow cytometry on Molm-13 cells, fluorophore-conjugated anti-human IgG secondary antibody, MFI as fold over background (FOB)
T1 construct: endogenous CD33 of human AML cell lines and blood monocytes; also called cell-expressed CD33 (Molm-13, Mv4-11, monocytes)
Description: (§1) The cells were analyzed by flow cytometry, and fold over background values were calculated by normalizing binding MFI to the MFI of a control group in which the cells were incubated with the secondary antibody only.

[2] = molecular target: T1, human CD33 expressed on cells; experiment: flow cytometry on Mv4-11 cells, fluorophore-conjugated anti-human IgG secondary antibody, MFI as fold over background (FOB)
Description: as §1

[3] = molecular target: T2, V domain of human CD33 (human, UniProt P20138 18-139, limits assumed); experiment: SPR, Fab captured, 37C
T2 construct: recombinant, fully glycosylated V domain; also called Human CD33 V domain
Description: (§2) Kinetics and affinity of a series of Fab fragments of anti-CD33 antibodies with different CD33 variants (human CD33 ECD, cyno CD33 ECD, V-domain of human CD33, C-domain or human CD33 and selected CD33 SNPs) were assessed by surface plasmon resonance using Biacore 8K instrument (GE Healthcare). Anti-Fab antibody was immobilized on a CMS chip using standard amine coupling chemistry. CD33 FABs were captured on the anti-Fab chip at a density of ˜100 RU. Solutions containing different concentrations of soluble monomeric CD33 or its domains were injected over the captured FABs and control surfaces at 30 μl/min at 37° C. Surfaces were regenerated between cycles by quick injection of 10 mM glycine, pH 1.8. To obtain kinetic rate constants double-referenced data were fit to a 1:1 interaction model using Biacore 8K Evaluation software (GE Healthcare). The equilibrium binding constant KD was determined by the ratio of binding rate constants kd/kₐ.

[4] = molecular target: T3, C domain of human CD33 (human, UniProt P20138 140-259, limits assumed); experiment: SPR, Fab captured, 37C
T3 construct: recombinant C domain
Description: as §2

[5] = molecular target: T4, human CD33 extracellular domain (human, UniProt P20138 18-259); experiment: SPR, Fab captured, 37C
T4 construct: soluble monomeric ECD; also called human CD33 ECD; hCD33
Description: as §2

[6] = molecular target: T4, human CD33 extracellular domain; experiment: SPR, Fab captured, 37C; remark: listed apart in the source
[7] = molecular target: T2, V domain of human CD33; experiment: SPR, Fab captured, 37C; remark: listed apart in the source
Description: as §2

[8] = molecular target: T4, human CD33 extracellular domain; experiment: SPR, Fab captured, 37C; remark: listed apart in the source
Description: as §2

[9] = molecular target: T2, V domain of human CD33; experiment: SPR, Fab captured, 37C; remark: listed apart in the source
Description: as §2
(§3) The ability of anti-CD33 antibodies to recognize glycosylated CD33 was assayed. […] De-glycosylation status was confirmed by a shift on SDS-PAGE and MS.

[10] = molecular target: T5, deglycosylated V domain of human CD33 (human, UniProt P20138 18-139, limits assumed, N-glycans removed by PNGase); experiment: SPR, Fab captured, 37C
T5 construct: V domain deglycosylated by PNGase before testing; also called deglycosylated V CD33
Description: as §2, §3

[11] = molecular target: T6, cyno CD33 extracellular domain (Cynomolgus/Rhesus (cyno)); experiment: SPR, Fab captured, 37C;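 also: surface plasmon resonance with Fabs captured on anti-Fab surface, soluble monomeric CD33 as analyte at several concentrations, double-referenced 1:1 model fit, KD as koff/kon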
T6 construct: soluble monomeric ECD; also called cyno CD33 ECD

[12] = molecular target: T4, human CD33 extracellular domain; experiment: SPR, Fab captured, 37C; remark: listed apart in the source
[13] = molecular target: T3, C domain of human CD33; experiment: SPR, Fab captured, 37C; remark: listed apart in the source
Description: as §2

[14] = molecular target: T4, human CD33 extracellular domain; experiment: SPR, Fab captured, 37C; remark: listed apart in the source
Description: as §2

[15] = molecular target: T7, human NKG2D expressed on cells (human, UniProt P26718 1-216); experiment: flow cytometry on EL4-hNKG2D cells
T7 construct: whole, on cells; also called hNKG2D; EL4-hNKG2D
T7 sequence (looked up): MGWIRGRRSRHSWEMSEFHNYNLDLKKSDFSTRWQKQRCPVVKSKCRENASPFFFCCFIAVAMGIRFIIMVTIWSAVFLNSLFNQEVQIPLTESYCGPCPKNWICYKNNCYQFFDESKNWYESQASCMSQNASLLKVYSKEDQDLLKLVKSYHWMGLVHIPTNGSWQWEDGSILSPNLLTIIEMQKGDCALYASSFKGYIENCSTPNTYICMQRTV
Description: EL4-hNKG2D cells were incubated with the diluted TriNKET or mAb solutions. Binding of the TriNKET or mAb to the EL4 cells was detected using a fluorophore-conjugated anti-human IgG secondary antibody. The cells were analyzed by flow cytometry, and fold over background values were calculated by normalizing binding MFI to the MFI of a control group in which the cells were incubated with the secondary antibody only.

B1: A49-F3′-TriNKET-I07 (bispecific antibody, human IgG1, kappa)
chain: DIQMTQSPSTLSASVGDRVTITCRASQSISSWLAWYQQKPGKAPKLLIYEASSLESGVPSRFSGSGSGTEFTLTISSLQPDDFATYYCQQSQSYPPITFGCGTKVEIKGGGGSGGGGSGGGGSGGGGSEVQLVESGGGLVQPGGSLRLSCAASGFTFGSYWMSWVRQAPGKCLEWVATIKQDGSEKSYVDSVKGRFTISRDNAKNSLYLQMNSLRAEDTAVYYCARPLNAGELDVWGQGTMVTVSSASDKTHTCPPCPAPELLGGPSVFLFPPKPKDTLMISRTPEVTCVVVDVSHEDPEVKFNWYVDGVEVHNAKTKPREEQYNSTYRVVSVLTVLHQDWLNGKEYKCKVSNKALPAPIEKTISKAKGQPREPRVYTLPPCRDELTKNQVSLTCLVKGFYPSDIAVEWESNGQPENNYKTTPPVLVSDGSFTLYSKLTVDKSRWQQGNVFSCSVMHEALHNHYTQKSLSLSPG
heavy: EVQLVESGGGLVKPGGSLRLSCAASGFTFSSYSMNWVRQAPGKGLEWVSSISSSSSYIYYADSVKGRFTISRDNAKNSLYLQMNSLRAEDTAVYYCARGAPMGAAAGWFDPWGQGTLVTVSSASTKGPSVFPLAPSSKSTSGGTAALGCLVKDYFPEPVTVSWNSGALTSGVHTFPAVLQSSGLYSLSSVVTVPSSSLGTQTYICNVNHKPSNTKVDKKVEPKSCDKTHTCPPCPAPELLGGPSVFLFPPKPKDTLMISRTPEVTCVVVDVSHEDPEVKFNWYVDGVEVHNAKTKPREEQYNSTYRVVSVLTVLHQDWLNGKEYKCKVSNKALPAPIEKTISKAKGQPREPQVCTLPPSRDELTENQVSLTCLVKGFYPSDIAVEWESNGQPENNYKTTPPVLDSDGSFFLYSWLTVDKSRWQQGNVFSCSVMHEALHNHYTQKSLSLSPG
light: DIQMTQSPSSVSASVGDRVTITCRASQGISSWLAWYQQKPGKAPKLLIYAASSLQSGVPSRFSGSGSGTDFTLTISSLQPEDFATYYCQQGVSFPRTFGGGTKVEIKRTVAAPSVFIFPPSDEQLKSGTASVVCLLNNFYPREAKVQWKVDNALQSGNSQESVTEQDSKDSTYSLSSTLTLSKADYEKHKVYACEVTHQGLSSPVTKSFNRGEC
notes: trispecific: I07 scFv-Fc (CD33), A49 VH-CH1-Fc and A49 VL-CL (NKG2D Fab), heterodimeric IgG1 Fc (CD16); also called TriNKET derivative of I07 mAb
- EC50 (read off the curve) [1]: ~5 µg/mL
- EC50 (read off the curve) [2]: ~2 µg/mL

B2: ADI-11801 Fab (Fab, V domains shown)
VH: QVQLVQSGAEVKKPGASVKVSCKASGYTFSDYYMHWVRQAPGQGLEWMGMINPSWGSTSYAQKFQGRVTMTRDTSTSTVYMELSSLRSEDTAVYYCAREAADGFVGERYFDLWGRGTLVTVSS
VL: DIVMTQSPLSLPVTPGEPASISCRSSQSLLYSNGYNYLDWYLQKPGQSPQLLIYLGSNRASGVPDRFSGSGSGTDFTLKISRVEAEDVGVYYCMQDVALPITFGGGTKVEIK
notes: Fab fragment; also called Ab4
- Kd [3]: 0.69 nM
- koff [3]: 0.00125 s⁻¹
- kon [3]: 1.8e+06 M⁻¹ s⁻¹
- binding result [4]: no binding
- Kd [5]: 0.55 nM
- koff [5]: 0.000417 s⁻¹
- kon [5]: 756000 M⁻¹ s⁻¹
- Kd [6]: 0.55 nM
- koff [6]: 0.000417 s⁻¹
- kon [6]: 756000 M⁻¹ s⁻¹
- Kd [7]: 0.69 nM
- koff [7]: 0.00125 s⁻¹
- kon [7]: 1.8e+06 M⁻¹ s⁻¹
- Kd [8]: 0.55 nM
- koff [8]: 0.000417 s⁻¹
- kon [8]: 756000 M⁻¹ s⁻¹
- Kd [9]: 0.69 nM
- koff [9]: 0.00125 s⁻¹
- kon [9]: 1.8e+06 M⁻¹ s⁻¹
- Kd [10]: 0.55 nM
- koff [10]: 0.00115 s⁻¹
- kon [10]: 2.1e+06 M⁻¹ s⁻¹
- binding result [11]: no binding (tested: 100 nM)
- Kd [12]: 0.55 nM
- koff [12]: 0.000417 s⁻¹
- kon [12]: 756000 M⁻¹ s⁻¹

The remaining lines, values ahead:

- binding result [13]: no binding
- Kd [14]: 0.23 nM
- koff [14]: 7.91e-05 s⁻¹
- kon [14]: 339000 M⁻¹ s⁻¹
- Kd [6]: 0.23 nM
- koff [6]: 7.91e-05 s⁻¹
- kon [6]: 339000 M⁻¹ s⁻¹
- binding result [7]: no binding
- Kd [8]: 0.23 nM
- koff [8]: 7.91e-05 s⁻¹
- kon [8]: 339000 M⁻¹ s⁻¹
- binding result [11]: no binding (tested: 100 nM)
- Kd [12]: 0.23 nM
- koff [12]: 7.91e-05 s⁻¹
- kon [12]: 339000 M⁻¹ s⁻¹
B3: ADI-11815 Fab (Fab, V domains shown)
VH: QVQLVQSGAEVKKPGASVKVSCKASGYTFGTYYMHWVRQAPGQGLEWMGIINPSRGSTVYAQKFQGRVTMTRDTSTSTVYMELSSLRSEDTAVYYCARGAGYDDEDMDVWGKGTTVTVSS
VL: DIQMTQSPSSVSASVGDRVTITCRASQGIDSWLAWYQQKPGKAPKLLIYAASSLQSGVPSRFSGSGSGTDFTLTISSLQPEDFATYYCQQAHSYPLTFGGGTKVEIK
notes: Fab fragment; also called Ab7

- binding result [15]: no binding
- EC50 (read off the curve) [1]: ~2 µg/mL
- EC50 (read off the curve) [2]: ~0.3 µg/mL
B4: I07-F405L mAb (antibody, human IgG1, kappa, V domains shown)
VH: EVQLVESGGGLVQPGGSLRLSCAASGFTFGSYWMSWVRQAPGKGLEWVATIKQDGSEKSYVDSVKGRFTISRDNAKNSLYLQMNSLRAEDTAVYYCARPLNAGELDVWGQGTMVTVSS
VL: DIQMTQSPSTLSASVGDRVTITCRASQSISSWLAWYQQKPGKAPKLLIYEASSLESGVPSRFSGSGSGTEFTLTISSLQPDDFATYYCQQSQSYPPITFGGGTKVEIKR
notes: Fc variant of I07 with F405L (EU); a Lys may optionally stand at the C-terminus of the heavy chain
